Where no end group is shown, it is not given here. [ ]: non-standard residue; d: D form. Aib = CC(C)(N)C(=O)O
How the values were obtained:
Experiment in all cases: cell-based or functional assay
[1] = molecular target: T1, human GLP-1 receptor (GLP-1R) (human, UniProt P43220 24-463)
[2] = molecular target: T2, human glucagon receptor (GCGR) (human, UniProt P47871 26-477)
[3] = molecular target: T1, human GLP-1 receptor (GLP-1R); remark: listed apart in the source
[4] = molecular target: T2, human glucagon receptor (GCGR); remark: listed apart in the source

T1 sequence (P43220 24-463): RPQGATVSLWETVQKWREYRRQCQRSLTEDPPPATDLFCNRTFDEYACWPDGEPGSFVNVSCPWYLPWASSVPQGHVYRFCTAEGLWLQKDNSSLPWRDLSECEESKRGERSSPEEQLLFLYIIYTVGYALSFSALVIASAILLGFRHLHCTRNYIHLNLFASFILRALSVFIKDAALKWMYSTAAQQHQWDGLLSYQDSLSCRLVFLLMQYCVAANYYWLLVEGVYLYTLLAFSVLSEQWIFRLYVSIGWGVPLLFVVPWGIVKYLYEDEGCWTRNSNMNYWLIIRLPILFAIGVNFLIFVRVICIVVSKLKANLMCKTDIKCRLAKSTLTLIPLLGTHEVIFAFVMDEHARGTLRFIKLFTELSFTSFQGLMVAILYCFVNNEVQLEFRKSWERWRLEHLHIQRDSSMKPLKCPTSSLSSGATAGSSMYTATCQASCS

B1: Compound A103 (peptide)
peptide: YSHGTFTSDYSKYLD[Aib]ARAQEFV[Aib]WLEDEPSSGAPPPS-OH
modifications: N-terminus assumed
SMILES: CC(C)C[C@H](NC(=O)[C@H](Cc1ccc(O)cc1)NC(=O)[C@H](CCCCN)NC(=O)[C@H](CO)NC(=O)[C@H](Cc1ccc(O)cc1)NC(=O)[C@H](CC(=O)O)NC(=O)[C@H](CO)NC(=O)[C@@H](NC(=O)[C@H](Cc1ccccc1)NC(=O)[C@@H](NC(=O)CNC(=O)[C@H](Cc1c[nH]cn1)NC(=O)[C@H](CO)NC(=O)[C@@H](N)Cc1ccc(O)cc1)[C@@H](C)O)[C@@H](C)O)C(=O)N[C@@H](CC(=O)O)C(=O)NC(C)(C)C(=O)N[C@@H](C)C(=O)N[C@@H](CCCNC(=N)N)C(=O)N[C@@H](C)C(=O)N[C@@H](CCC(N)=O)C(=O)N[C@@H](CCC(=O)O)C(=O)N[C@@H](Cc1ccccc1)C(=O)N[C@H](C(=O)NC(C)(C)C(=O)N[C@@H](Cc1c[nH]c2ccccc12)C(=O)N[C@@H](CC(C)C)C(=O)N[C@@H](CCC(=O)O)C(=O)N[C@@H](CC(=O)O)C(=O)N[C@@H](CCC(=O)O)C(=O)N1CCC[C@H]1C(=O)N[C@@H](CO)C(=O)N[C@@H](CO)C(=O)NCC(=O)N[C@@H](C)C(=O)N1CCC[C@H]1C(=O)N1CCC[C@H]1C(=O)N1CCC[C@H]1C(=O)N[C@@H](CO)C(=O)O)C(C)C
[1]
  hGLP1 pEC50 (cAMP) mean (n = 3): 11 point curve starting at 1 nM: < 9 pEC50
[2]
  hGCGR pEC50 (cAMP) mean (n = 3): 11 point curve starting at 1 nM: 11.9 pEC50

B2: Compound A6 (peptide)
peptide: WSQGTFTSDYSKYLD[Aib]KRAQEFV[Aib]WLEDEPSSGAPPPS-OH
modifications: N-terminus assumed
SMILES: CC(C)C[C@H](NC(=O)[C@H](Cc1ccc(O)cc1)NC(=O)[C@H](CCCCN)NC(=O)[C@H](CO)NC(=O)[C@H](Cc1ccc(O)cc1)NC(=O)[C@H](CC(=O)O)NC(=O)[C@H](CO)NC(=O)[C@@H](NC(=O)[C@H](Cc1ccccc1)NC(=O)[C@@H](NC(=O)CNC(=O)[C@H](CCC(N)=O)NC(=O)[C@H](CO)NC(=O)[C@@H](N)Cc1c[nH]c2ccccc12)[C@@H](C)O)[C@@H](C)O)C(=O)N[C@@H](CC(=O)O)C(=O)NC(C)(C)C(=O)N[C@@H](CCCCN)C(=O)N[C@@H](CCCNC(=N)N)C(=O)N[C@@H](C)C(=O)N[C@@H](CCC(N)=O)C(=O)N[C@@H](CCC(=O)O)C(=O)N[C@@H](Cc1ccccc1)C(=O)N[C@H](C(=O)NC(C)(C)C(=O)N[C@@H](Cc1c[nH]c2ccccc12)C(=O)N[C@@H](CC(C)C)C(=O)N[C@@H](CCC(=O)O)C(=O)N[C@@H](CC(=O)O)C(=O)N[C@@H](CCC(=O)O)C(=O)N1CCC[C@H]1C(=O)N[C@@H](CO)C(=O)N[C@@H](CO)C(=O)NCC(=O)N[C@@H](C)C(=O)N1CCC[C@H]1C(=O)N1CCC[C@H]1C(=O)N1CCC[C@H]1C(=O)N[C@@H](CO)C(=O)O)C(C)C
[3]
  hGLP1 pEC50 (cAMP) mean (n = 9): 11 point curve starting at 500 uM: 5.3 pEC50
[4]
  hGCGR pEC50 (cAMP) mean (n = 9): 11 point curve starting at 1 uM: 11.7 pEC50

B3: Compound A101 (peptide)
peptide: YGHGTFTSDHSKYLD[Aib]KRAQEFVKWLEDE-OH
modifications: N-terminus assumed
SMILES: CC(C)C[C@H](NC(=O)[C@H](Cc1c[nH]c2ccccc12)NC(=O)[C@H](CCCCN)NC(=O)[C@@H](NC(=O)[C@H](Cc1ccccc1)NC(=O)[C@H](CCC(=O)O)NC(=O)[C@H](CCC(N)=O)NC(=O)[C@H](C)NC(=O)[C@H](CCCNC(=N)N)NC(=O)[C@H](CCCCN)NC(=O)C(C)(C)NC(=O)[C@H](CC(=O)O)NC(=O)[C@H](CC(C)C)NC(=O)[C@H](Cc1ccc(O)cc1)NC(=O)[C@H](CCCCN)NC(=O)[C@H](CO)NC(=O)[C@H](Cc1c[nH]cn1)NC(=O)[C@H](CC(=O)O)NC(=O)[C@H](CO)NC(=O)[C@@H](NC(=O)[C@H](Cc1ccccc1)NC(=O)[C@@H](NC(=O)CNC(=O)[C@H](Cc1c[nH]cn1)NC(=O)CNC(=O)[C@@H](N)Cc1ccc(O)cc1)[C@@H](C)O)[C@@H](C)O)C(C)C)C(=O)N[C@@H](CCC(=O)O)C(=O)N[C@@H](CC(=O)O)C(=O)N[C@@H](CCC(=O)O)C(=O)O
[1]
  hGLP1 pEC50 (cAMP) mean (n = 3): 11 point curve starting at 1 nM: < 9 pEC50
[2]
  hGCGR pEC50 (cAMP) mean (n = 3): 11 point curve starting at 1 nM: 11.3 pEC50

B4: Compound A102 (peptide)
peptide: YSHGTFTSDYSKWLD[Aib]KRAQEFVKWLEDE-OH
modifications: N-terminus assumed
SMILES: CC(C)C[C@H](NC(=O)[C@H](Cc1c[nH]c2ccccc12)NC(=O)[C@H](CCCCN)NC(=O)[C@@H](NC(=O)[C@H](Cc1ccccc1)NC(=O)[C@H](CCC(=O)O)NC(=O)[C@H](CCC(N)=O)NC(=O)[C@H](C)NC(=O)[C@H](CCCNC(=N)N)NC(=O)[C@H](CCCCN)NC(=O)C(C)(C)NC(=O)[C@H](CC(=O)O)NC(=O)[C@H](CC(C)C)NC(=O)[C@H](Cc1c[nH]c2ccccc12)NC(=O)[C@H](CCCCN)NC(=O)[C@H](CO)NC(=O)[C@H](Cc1ccc(O)cc1)NC(=O)[C@H](CC(=O)O)NC(=O)[C@H](CO)NC(=O)[C@@H](NC(=O)[C@H](Cc1ccccc1)NC(=O)[C@@H](NC(=O)CNC(=O)[C@H](Cc1c[nH]cn1)NC(=O)[C@H](CO)NC(=O)[C@@H](N)Cc1ccc(O)cc1)[C@@H](C)O)[C@@H](C)O)C(C)C)C(=O)N[C@@H](CCC(=O)O)C(=O)N[C@@H](CC(=O)O)C(=O)N[C@@H](CCC(=O)O)C(=O)O
[1]
  hGLP1 pEC50 (cAMP) mean (n = 3): 11 point curve starting at 1 nM: < 9 pEC50
[2]
  hGCGR pEC50 (cAMP) mean (n = 3): 11 point curve starting at 1 nM: 12.4 pEC50

B5: Compound A100 (peptide)
peptide: YSHGTFTSDYSKYLD[Aib]KRAQEFV[Aib]WLEDE-OH
modifications: N-terminus assumed
SMILES: CC(C)C[C@H](NC(=O)[C@H](Cc1ccc(O)cc1)NC(=O)[C@H](CCCCN)NC(=O)[C@H](CO)NC(=O)[C@H](Cc1ccc(O)cc1)NC(=O)[C@H](CC(=O)O)NC(=O)[C@H](CO)NC(=O)[C@@H](NC(=O)[C@H](Cc1ccccc1)NC(=O)[C@@H](NC(=O)CNC(=O)[C@H](Cc1c[nH]cn1)NC(=O)[C@H](CO)NC(=O)[C@@H](N)Cc1ccc(O)cc1)[C@@H](C)O)[C@@H](C)O)C(=O)N[C@@H](CC(=O)O)C(=O)NC(C)(C)C(=O)N[C@@H](CCCCN)C(=O)N[C@@H](CCCNC(=N)N)C(=O)N[C@@H](C)C(=O)N[C@@H](CCC(N)=O)C(=O)N[C@@H](CCC(=O)O)C(=O)N[C@@H](Cc1ccccc1)C(=O)N[C@H](C(=O)NC(C)(C)C(=O)N[C@@H](Cc1c[nH]c2ccccc12)C(=O)N[C@@H](CC(C)C)C(=O)N[C@@H](CCC(=O)O)C(=O)N[C@@H](CC(=O)O)C(=O)N[C@@H](CCC(=O)O)C(=O)O)C(C)C
[1]
  hGLP1 pEC50 (cAMP) mean (n = 3): 11 point curve starting at 1 nM: < 9 pEC50
[2]
  hGCGR pEC50 (cAMP) mean (n = 3): 11 point curve starting at 1 nM: 12.6 pEC50

From patent US20180009871A1 (INTARCIA THERAPEUTICS, published 2018)
